Tests used:
[1] = molecular target: IL-4Rα (UniProt P24394); assay: blocking ELISA: IL-4Rα coated, biotin-IL-4; hIgG is the control, fitted value as printed
[2] = molecular target: IL-4Rα (UniProt P24394); assay: cell-based or functional assay
[3] = molecular target: IL-5 (human) (UniProt P05113); assay: cell-based or functional assay
[4] = molecular target: 混合人源IL-4、IL-5 (human) (UniProt P05112); assay: cell-based or functional assay

Substance	EC50, IL4:IL5=1:1混合诱导TF-1增殖, 板8 [4]	EC50, IL4:IL5=1:2混合诱导TF-1增殖, 板10 [4]	EC50, IL4:IL5=1:3混合诱导TF-1增殖, 板12 [4]	EC50, IL4:IL5=3:1混合诱导TF-1增殖, 板4 [4]	EC50, IL4:IL5=4:1混合诱导TF-1增殖, 板2 [4]	试验窗口, IL4:IL5=1:1混合诱导TF-1增殖, 板8 [4]	试验窗口, IL4:IL5=1:2混合诱导TF-1增殖, 板10 [4]	试验窗口, IL4:IL5=1:3混合诱导TF-1增殖, 板12 [4]	试验窗口, IL4:IL5=1:4混合诱导TF-1增殖, 板14 [4]	试验窗口, IL4:IL5=2:1混合诱导TF-1增殖, 板6 [4]	试验窗口, IL4:IL5=3:1混合诱导TF-1增殖, 板4 [4]	试验窗口, IL4:IL5=4:1混合诱导TF-1增殖, 板2 [4]	EC50, IL4:IL5=1:1混合诱导TF-1增殖, 板7 [4]	EC50, IL4:IL5=1:2混合诱导TF-1增殖, 板9 [4]	EC50, IL4:IL5=1:3混合诱导TF-1增殖, 板11 [4]	EC50, IL4:IL5=1:4混合诱导TF-1增殖, 板13 [4]	EC50, IL4:IL5=2:1混合诱导TF-1增殖, 板5 [4]	EC50, IL4:IL5=3:1混合诱导TF-1增殖, 板3 [4]	EC50, IL4:IL5=4:1混合诱导TF-1增殖, 板1 [4]	试验窗口, IL4:IL5=1:1混合诱导TF-1增殖, 板7 [4]	also measured
hIgG (antibody)																					EC50 [1]: 2.04 nM; EC50, 中和IL-4诱导的TF-1细胞增殖 (control) [2]: 0.375 nM; EC50, 中和IL-13诱导的TF-1细胞增殖 (control) [2]: 0.131 nM; EC50, 中和IL-5诱导的TF-1细胞增殖 (control) [3]: 0.108 nM
Dupilumab+Mepolizumab(1:1混合)	1.73 nM	1.96 nM	0.88 nM	0.965 nM	0.825 nM	1.92 倍	1.62 倍	1.76 倍	1.79 倍	1.76 倍	1.67 倍	1.68 倍									EC50, IL4:IL5=1:4混合诱导TF-1增殖, 板14 [4]: 0.395 nM; EC50, IL4:IL5=2:1混合诱导TF-1增殖, 板6 [4]: 1.28 nM
Human IgG1,kappa Isotype Control (antibody)	14.7 nM	0.00264 nM	0.00193 nM	0.000915 nM	0.105 nM	1.07 倍	0.99 倍	0.95 倍	1.03 倍	0.99 倍	1.02 倍	1.01 倍									

Now from value to substance, other results behind:

EC50, IL4:IL5=1:1混合诱导TF-1增殖, 板8 [4]	EC50, IL4:IL5=1:2混合诱导TF-1增殖, 板10 [4]	EC50, IL4:IL5=1:3混合诱导TF-1增殖, 板12 [4]	EC50, IL4:IL5=3:1混合诱导TF-1增殖, 板4 [4]	EC50, IL4:IL5=4:1混合诱导TF-1增殖, 板2 [4]	试验窗口, IL4:IL5=1:1混合诱导TF-1增殖, 板8 [4]	试验窗口, IL4:IL5=1:2混合诱导TF-1增殖, 板10 [4]	试验窗口, IL4:IL5=1:3混合诱导TF-1增殖, 板12 [4]	试验窗口, IL4:IL5=1:4混合诱导TF-1增殖, 板14 [4]	试验窗口, IL4:IL5=2:1混合诱导TF-1增殖, 板6 [4]	试验窗口, IL4:IL5=3:1混合诱导TF-1增殖, 板4 [4]	试验窗口, IL4:IL5=4:1混合诱导TF-1增殖, 板2 [4]	EC50, IL4:IL5=1:1混合诱导TF-1增殖, 板7 [4]	EC50, IL4:IL5=1:2混合诱导TF-1增殖, 板9 [4]	EC50, IL4:IL5=1:3混合诱导TF-1增殖, 板11 [4]	EC50, IL4:IL5=1:4混合诱导TF-1增殖, 板13 [4]	EC50, IL4:IL5=2:1混合诱导TF-1增殖, 板5 [4]	EC50, IL4:IL5=3:1混合诱导TF-1增殖, 板3 [4]	EC50, IL4:IL5=4:1混合诱导TF-1增殖, 板1 [4]	试验窗口, IL4:IL5=1:1混合诱导TF-1增殖, 板7 [4]	Substance	also measured
												0.57 nM	0.899 nM	0.343 nM	0.156 nM	0.452 nM	0.448 nM	0.813 nM	1.77 倍	dupilumab (antibody)	试验窗口, IL4:IL5=1:2混合诱导TF-1增殖, 板9 [4]: 1.68 倍; 试验窗口, IL4:IL5=1:3混合诱导TF-1增殖, 板11 [4]: 1.53 倍; 试验窗口, IL4:IL5=1:4混合诱导TF-1增殖, 板13 [4]: 1.58 倍; 试验窗口, IL4:IL5=2:1混合诱导TF-1增殖, 板5 [4]: 1.6 倍; 试验窗口, IL4:IL5=4:1混合诱导TF-1增殖, 板1 [4]: 1.77 倍
												14.9 nM	0.00104 nM	0.00147 nM	1.1 nM	2.94 nM	0.00132 nM	0.0013 nM	1.11 倍	Mepolizumab (antibody)	试验窗口, IL4:IL5=1:2混合诱导TF-1增殖, 板9 [4]: 1.06 倍; 试验窗口, IL4:IL5=1:3混合诱导TF-1增殖, 板11 [4]: 1.01 倍; 试验窗口, IL4:IL5=1:4混合诱导TF-1增殖, 板13 [4]: 1.14 倍; 试验窗口, IL4:IL5=2:1混合诱导TF-1增殖, 板5 [4]: 0.99 倍; 试验窗口, IL4:IL5=3:1混合诱导TF-1增殖, 板3 [4]: 1.05 倍; 试验窗口, IL4:IL5=4:1混合诱导TF-1增殖, 板1 [4]: 1.02 倍

Source: patent publication CN117138036A
